The results in this text go back to the Immune Epitope Database (IEDB).

As a reminder, the IC50 is the concentration at which inhibition is half-maximal.

One test deals with HLA-A*02:01. The test can be described thus: IEDB peptide-MHC binding, cellular MHC/competitive/fluorescence; ≥ and ≤ were set here for values at or beyond the usual limits of such assays. The conditions noted are these: source organism: Vaccinia virus WR.
Another test has as its target HLA-A*02:02. The test can be described thus: IEDB peptide-MHC binding, purified MHC/competitive/radioactivity; ≥ and ≤ were set here for values at or beyond the usual limits of such assays.
Another test deals with HLA-A*02:03. Described as above.
In a further test the target is HLA-A*02:06. Described as above.
A further test has as its target HLA-A*68:02. Described as above.
The mark [1] stands for this setting: source organism: Hepacivirus hominis.
[2] abbreviates: source organism: Vaccinia virus WR.

Turning to TIIERSKKFI, the IC50 with HLA-A*02:01 was found to be 45.1 µM. Same read-out and setting: next, TIKCSNLCT: 8.78 µM; TIKISPGIA: 37.4 µM. Still for that read-out and setting: next, TIQESFIRFT: at least 70 µM; TIRVTSNGL: 23.5 µM; TISMLIEVIL: at least 70 µM. In the case of TLLCVLAAL, the IC50 in the test with HLA-A*02:02 (source organism: SARS-CoV1) was determined as 8.1 nM; with HLA-A*02:03 (source organism: SARS-CoV1), 0.011 µM; in the test with HLA-A*02:06 (source organism: SARS-CoV1), 0.008 µM; in the test with HLA-A*68:02 (source organism: SARS-CoV1) it was 0.431 µM. With TLMNVITLV, the IC50 stood at 0.34 nM with HLA-A*02:02 (source organism: SARS-CoV1), 0.00025 µM with HLA-A*02:03 (source organism: SARS-CoV1), 0.0007 µM with HLA-A*02:06 (source organism: SARS-CoV1) and 0.013 µM with HLA-A*68:02 (source organism: SARS-CoV1). Take TLNEDLLEI: the IC50 in the test with HLA-A*02:02 (source organism: SARS-CoV1) amounted to 1.4 nM; with HLA-A*02:03 (source organism: SARS-CoV1) it was 0.0022 µM; with HLA-A*02:06 (source organism: SARS-CoV1), 0.056 µM; in the test with HLA-A*68:02 (source organism: SARS-CoV1) it was 1.46 µM.

For TLPNKSDVLI, the IC50 with HLA-A*02:01 came to 5.32 µM.

Regarding TLPSIFLIIT, the IC50 in the test with HLA-A*02:01 came out at 9.73 µM.

In turn, TLQKVLHVT registered an IC50 with HLA-A*02:01 of 5.79 µM. The same measure, in the same setting: next, TLSLSKQDI: 11.7 µM; TLTGSPSST: 28.6 µM. The same measure, in the same setting: next, TMDGDKLSKL: at least 70 µM; TMKIFYKHI: at least 70 µM; TMPTYKHLI: 27.3 µM. On the same count and under the same terms, next, TMSTPMTEYI: 7.95 µM. Turning to TQHPDYAILA, the half-maximal inhibitory concentration (IC50) in the test with HLA-A*02:01 is 6.73 µM. Still for that read-out and setting: next, TTDNKITSI: 11.5 µM; TTLSRHIFM: 6.42 µM; TTSDYQDSDV: 11.9 µM. The same measure, in the same setting: next, TTSEVVDML: 6.04 µM; TTSSREERVL: at least 70 µM; TTTSEVVDM: 10 µM. Regarding TVELMNLKEL, the IC50 in the test with HLA-A*02:01 was 50.6 µM. On the same count and under the same terms, next, TVMNNLSELT: 11.9 µM; TVPTMNNAKL: 41.7 µM.

TVRSIITDA: in the test with HLA-A*02:01, the half-maximal inhibitory concentration (IC50) was 10.2 µM. In the test with HLA-A*02:01, TVSTIDGRI displayed an IC50 of at least 70 µM. Same read-out and setting: next, TVSTIDGRIV: at least 70 µM; TVTNLISET: 31.1 µM. On the same count and under the same terms, next, TVTNLISETL: 16.6 µM; VALTIMGVI: 8.94 µM. Still for that read-out and setting: next, VANVVNHVLT: at least 70 µM. In turn, VAPMPTASTA registered an IC50 with HLA-A*02:01 of 25 µM.

Sequence VARRKDQTA displayed an IC50 with HLA-A*02:01 of 37.7 µM.

As to VATDPDADA, the IC50 in the test with HLA-A*02:01 is at least 70 µM.

In the test with HLA-A*02:01, VATDPDADAI displayed an IC50 of at least 70 µM. On the same count and under the same terms, next, VAVAAASST: 13.5 µM; VIFLISVIV: 13.6 µM.

In turn, VIGASYISCT gave an IC50 with HLA-A*02:01 of 17.8 µM. In the test with HLA-A*02:01, VIKCMIDEGA registered an IC50 of 9.87 µM.

Regarding VISLLSMIT, in the test with HLA-A*02:01, the IC50 is 5 µM.

In the test with HLA-A*02:01, VISLLSMITM gave an IC50 of 10.8 µM. Still for that read-out and setting: then VISPMGKLT, with 8.49 µM. VIYPNFSKA: the IC50 in the test with HLA-A*02:01 was 14.2 µM.

On to VIYPNFSKAM, for which the IC50 in the test with HLA-A*02:01 is 17.8 µM.

As for VLAWLYAAV, the IC50 with HLA-A*02:02 (source organism: SARS-CoV1) was 0.097 nM; with HLA-A*02:03 (source organism: SARS-CoV1), 0.00031 µM; with HLA-A*02:06 (source organism: SARS-CoV1), 0.0088 µM; in the test with HLA-A*68:02 (source organism: SARS-CoV1) it was 0.037 µM. VLTTPGLNHA returned an IC50 in the test with HLA-A*02:01 of at least 70 µM. On the same count and under the same terms, then VMETDRENA, with 8.08 µM; and VQLVDAIDNI, with 13.3 µM; and VTDTINTVL, with 13.6 µM.

Turning to VTFNPVSDI, the IC50 with HLA-A*02:01 came to 46.3 µM. Same read-out and setting: next, VTINNLKMM: 9.06 µM; VTKQDELQAA: 14.3 µM; VTKTDGIPI: 8.57 µM.

In the case of VTKTDGIPIT, the IC50 in the test with HLA-A*02:01 was 27.5 µM. In the test with HLA-A*02:01, VTKVNNYDDT displayed an IC50 of at least 70 µM. In turn, VTLNAGNIDI displayed an IC50 in the test with HLA-A*02:01 of 12.9 µM. On the same count and under the same terms, next, VTLNASQYA: 5.01 µM. In the test with HLA-A*02:01, VTLQKVLHVT came in with a 50% inhibitory concentration (IC50) of 35.9 µM. Sequence VTNKEGVKI displayed a concentration for half-maximal inhibition (IC50) with HLA-A*02:01 of 57.4 µM. Same read-out and setting: then VTSSGAIYKL, with 16.1 µM; and VVELEPSLAT, with at least 70 µM. On to VVKYLSGGGI, for which, in the test with HLA-A*02:01, the concentration for half-maximal inhibition (IC50) is at least 70 µM. The sequence VVRRTMLSDI gave an IC50 with HLA-A*02:01 of 8.52 µM. Same read-out and setting: then VVSRHLTNDA, with at least 70 µM. Same read-out and setting: then VVSSSTIAT, with 11 µM; and VVYNPSTMST, with 57.8 µM.

WIKTISKRM displayed an IC50 with HLA-A*02:01 of 23.6 µM. The sequence WLTAVEHIPT yielded an IC50 in the test with HLA-A*02:01 of 6.96 µM. Still for that read-out and setting: then WTVYLIKLI, with 7.52 µM; and YASIINRDII, with 7.11 µM; and YIIRRSGCRI, with 43.1 µM. Turning to YIQETIRSDT, the 50% inhibitory concentration (IC50) in the test with HLA-A*02:01 was 39.3 µM.

Sequence YIRNTLTEKI returned an IC50 in the test with HLA-A*02:01 of 38.4 µM. In the test with HLA-A*02:01, YITSGKNNM showed a half-inhibitory concentration (IC50) of 51.6 µM. On to YLNTPGLPV, for which the IC50 with HLA-A*02:02 (setting [1]) was determined as 9.3 nM; with HLA-A*02:03 (setting [1]) it was 0.012 µM; with HLA-A*02:06 (setting [1]), 0.847 µM; in the test with HLA-A*68:02 (setting [1]), 0.196 µM.

YTRPEIDVL: the IC50 with HLA-A*02:02 (setting [2]) came out at 115 nM; with HLA-A*02:03 (setting [2]), 0.074 µM; with HLA-A*02:06 (setting [2]) it was 0.154 µM; in the test with HLA-A*68:02 (setting [2]) it was 0.528 µM. In turn, YTVMVKINPT came in with an IC50 with HLA-A*02:01 of 9.38 µM.

In turn, YVESKLVDI showed an IC50 with HLA-A*02:01 of 25.3 µM. Same read-out and setting: then YVGSYASNGI, with 15.2 µM. The sequence YVSTGESSI came in with an IC50 with HLA-A*02:01 of 11.4 µM. Consider YVTLNASQYA, for which the IC50 in the test with HLA-A*02:01 stood at 23.1 µM.
